± gives the standard deviation of the averaged measurements.
System: Saccharomyces cerevisiae
Assay: protein stability index of tFT-peptide fusion (C-terminal peptide) (PSI (0-1 scale)); higher = more stable (slower turnover)
Details: genetic background: wild type; temperature: 30 C
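Note: PSI is a weighted mean of sequencing reads over stability bins, variants kept only with over 10 reads, mCherry proximal and sfGFP distal, peptide attached via GGGS linker.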

Sequence	protein stability index
TPQPPPHSTYRC	0.702 ± 0.031
TPRPPPSSFLSL	0.679 ± 0.05
TPRYVGLIKINK	0.676 ± 0.03
TPSDHRRLRGSN	0.689 ± 0.045
TPSLPAPGPPSP	0.735 ± 0.11
TPSPHPRYRASH	0.703 ± 0.026
TPSPLAILSSTC	0.6888 ± 0.0047
TPWIRGRTHPGR	0.705 ± 0.016
TQLNTLSTINRT	0.71 ± 0.11
TQNRGLSSFRAF	0.691 ± 0.035
TQVGLGSFYSLG	0.697 ± 0.079
TRALPIVLAVGP	0.59 ± 0.026
TRDTLNLMYKRL	0.703 ± 0.046
TRDVPVTPQWGY	0.671 ± 0.076
TREITDAKVGNE	0.7145 ± 0.0015
TRERRQAAGGGT	0.665 ± 0.055
TRGDCFAVRKAR	0.702 ± 0.027
TRLTSSGVGSVP	0.683 ± 0.1
TRLVRQLNNNLE	0.667 ± 0.013
TRNRKEWKIVIL	0.594 ± 0.042
TRNTNYNKKIKV	0.6801 ± 0.0022
TRPCFSGFNSPF	0.6545 ± 0.0019
TRPSPHRPSAST	0.678 ± 0.054
TRSRAQTEAHRR	0.669 ± 0.032
TRTTTQKNNATT	0.717 ± 0.037
TSHSSSGQAGKI	0.73 ± 0.033

Sequence	protein stability index
TSIDVLKCVYIQ	0.5549 ± 0.0054
TSKGLGSRSAHP	0.665 ± 0.044
TSLALAFTFAIP	0.703 ± 0.051
TSPPHLPASSHS	0.689 ± 0.014
TSQHLQNHYKKI	0.701 ± 0.0035
TSRCQIGIALGG	0.695 ± 0.12
TSRGGFCLGGVF	0.729 ± 0.018
TSRLPPSPPPPP	0.696 ± 0.14
TSRSPLCTETIP	0.736 ± 0.0074
TSTGARTMFNPV	0.646 ± 0.061
TSVVLPGPAVSR	0.732 ± 0.049
TSWTTVYSSLLT	0.672 ± 0.088
TTACLLERFTRV	0.664 ± 0.028
TTDKNEAHVYSR	0.6931 ± 0.00098
TTGGRGARVGGR	0.755 ± 0.08
TTILCVARHIPH	0.759 ± 0.089
TTLFLPAGYACR	0.707 ± 0.037
TTPKLQPAPAVP	0.691 ± 0.059
TTRKMGTRAPSL	0.647 ± 0.095
TTRPTRGRPSSG	0.682 ± 0.058
TTSDSVVFWTLH	0.719 ± 0.0074
TTSGCARLSHMV	0.709 ± 0.086
TTSPRNMIIYYR	0.627 ± 0.037
TTYFLASSEWAG	0.7739 ± 0.003
TVGSPTPRSSAP	0.707 ± 0.0098
TVLRPVLCCFFV	0.698 ± 0.015

Sequence	protein stability index
TVLSSQKPNNDR	0.652 ± 0.023
TVPESGSIGERK	0.672 ± 0.03
TVPGTARGQRPP	0.629 ± 0.03
TVRFTHQRNTVK	0.689 ± 0.037
TVRIGKYTGNGV	0.738 ± 0.017
TVSAPLFFPLNW	0.663 ± 0.034
TVTSTLKKHKRG	0.669 ± 0.034
TVYTPGVFVKTV	0.562 ± 0.044
TWIGRLGAGLPF	0.779 ± 0.074
TWSLYFSCRLFW	0.54 ± 0.055
TWVVPSASWLVF	0.598 ± 0.009
TYGPSLPVHAVT	0.686 ± 0.012
TYPMGVVLVESG	0.498 ± 0.011
TYQRTHKTATQF	0.681 ± 0.073
TYRLPLLAPAPR	0.688 ± 0.0097
TYSCLKIVIPRT	0.664 ± 0.018
VAAASPLFSRID	0.712 ± 0.014
VADTLVCRGPMA	0.718 ± 0.023
VALEWGAVRVEG	0.569 ± 0.088
VALPVGQKLRTR	0.633 ± 0.029
VAPLTPPPSLPF	0.671 ± 0.014
VAQKARSVRFSI	0.722 ± 0.1
VARPSGQRVRHA	0.656 ± 0.085
VARVVGGVGGGW	0.6553 ± 0.006
VASGLVLFSGGV	0.655 ± 0.0076
VASGTLGWWVSA	0.712 ± 0.018

Sequence	protein stability index
VAVGAGAGAMGL	0.656 ± 0.0094
VAYAGIRHDIPQ	0.68 ± 0.081
VCCMFTAFGVCG	0.604 ± 0.022
VCGGRQVGWGGW	0.684 ± 0.045
VCGLTLSVCTFG	0.567 ± 0.0068
VCKGGRIEYGLQ	0.666 ± 0.037
VCLCFWSVGSWG	0.543 ± 0.011
VCLCGGLGWVLF	0.634 ± 0.029
VCVACLRYPTFS	0.6767 ± 0.0031
VCWFMWSSVYGE	0.527 ± 0.051
VDCEECSFQFQM	0.586 ± 0.15
VDCGPLSIEGGR	0.649 ± 0.018
VDLLGWVSESRC	0.743 ± 0.089
VDREGFTVLGRV	0.657 ± 0.021
VDSLETDVLKYL	0.665 ± 0.011
VDSLFGSRVLRL	0.727 ± 0.097
VEDGQGEYRRWV	0.606 ± 0.049
VEGINSQERLGV	0.724 ± 0.07
VEHHSKQIEKGR	0.681 ± 0.053
VELCLREKQIQL	0.6749 ± 0.0039
VELFSYGHHCRV	0.658 ± 0.011
VELSVVHMGHTA	0.722 ± 0.0073
VESRVVGGCGDW	0.625 ± 0.03

Source: the supplement of paper PMC10724198
